Measured values from patent US10941182 (Amgen, dated 2021).
Starred links: 1 amine or outer side, 2 acyl side, 3 side chain; linkers in the order of their positions; H or OH if unused. Non-standard residues stand in square brackets, D forms with d. *: point of attachment. Oic = O=C(O)[C@@H]1C[C@@H]2CCCC[C@@H]2N1; Phe(4-Cl) = N[C@@H](Cc1ccc(Cl)cc1)C(=O)O; γGlu = O=C(O)[C@H](CCC(=O)[*:2])N[*:1]; 2Nal = N[C@@H](Cc1ccc2ccccc2c1)C(=O)O; NMeR = CN[C@@H](CCCNC(=N)N)C(=O)O; Tridecanoyl = CCCCCCCCCCCCC(=O)*; hArg = N=C(N)NCCCC[C@H](N)C(=O)O; Cha = N[C@@H](CC1CCCCC1)C(=O)O; αMeL = CC(C)C[C@](C)(N)C(=O)O; αMeP = C[C@@]1(C(=O)O)CCCN1; β3hP = O=C(O)C[C@@H]1CCCN1; Nle = CCCC[C@H](N)C(=O)O; AEEA = NCCOCCOCC(=O)O; Aib = CC(C)(N)C(=O)O

T1: human APJ receptor (human, UniProt P35414 1-380)
T1 sequence (looked up): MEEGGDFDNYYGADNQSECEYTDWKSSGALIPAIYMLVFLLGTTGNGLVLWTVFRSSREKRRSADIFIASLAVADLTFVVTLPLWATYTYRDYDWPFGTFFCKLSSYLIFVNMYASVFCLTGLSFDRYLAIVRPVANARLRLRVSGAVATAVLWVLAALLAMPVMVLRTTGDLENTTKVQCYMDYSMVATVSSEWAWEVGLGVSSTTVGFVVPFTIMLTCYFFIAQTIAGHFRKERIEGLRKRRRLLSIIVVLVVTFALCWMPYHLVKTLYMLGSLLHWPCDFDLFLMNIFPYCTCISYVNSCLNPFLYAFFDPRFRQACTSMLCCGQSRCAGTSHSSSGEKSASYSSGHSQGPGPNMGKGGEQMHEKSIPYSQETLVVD

T2: rat APJ receptor (rat, UniProt Q9JHG3 1-377)
T2 sequence (looked up): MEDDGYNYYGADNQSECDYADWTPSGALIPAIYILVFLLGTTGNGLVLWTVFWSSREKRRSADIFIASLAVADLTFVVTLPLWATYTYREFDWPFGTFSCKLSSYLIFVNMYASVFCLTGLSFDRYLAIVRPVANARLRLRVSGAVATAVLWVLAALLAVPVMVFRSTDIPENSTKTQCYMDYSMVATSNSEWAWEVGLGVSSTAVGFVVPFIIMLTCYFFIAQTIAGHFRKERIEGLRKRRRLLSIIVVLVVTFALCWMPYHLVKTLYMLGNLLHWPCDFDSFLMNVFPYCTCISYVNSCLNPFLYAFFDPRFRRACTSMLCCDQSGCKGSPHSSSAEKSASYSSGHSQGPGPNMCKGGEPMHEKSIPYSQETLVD


Tests used:
human APJ receptor = molecular target: T1, human APJ receptor; test: cell-based or functional assay
rat APJ receptor = molecular target: T2, rat APJ receptor; test: cell-based or functional assay

| EC50 Human APJ Receptor (GTPγS assay) (human APJ receptor) [pM] | EC50 Rat APJ Receptor (GTPγS assay) (rat APJ receptor) [pM] | Binder |
| --- | --- | --- |
| 86.7 | 180 | Tridecanoyl-[γGlu][AEEA][AEEA]QRP[hArg][Cha]SHKG[Oic][Nle]P[Phe(4-Cl)]-OH (SMILES CCCCCCCCCCCCC(=O)N[C@@H](CCC(=O)NCCOCCOCC(=O)NCCOCCOCC(=O)N[C@@H](CCC(N)=O)C(=O)N[C@@H](CCCNC(=N)N)C(=O)N1CCC[C@H]1C(=O)N[C@@H](CCCCNC(=N)N)C(=O)N[C@@H](CC1CCCCC1)C(=O)N[C@@H](CO)C(=O)N[C@@H](Cc1c[nH]cn1)C(=O)N[C@@H](CCCCN)C(=O)NCC(=O)N1[C@H](C(=O)N[C@@H](CCCC)C(=O)N2CCC[C@H]2C(=O)N[C@@H](Cc2ccc(Cl)cc2)C(=O)O)C[C@@H]2CCCC[C@@H]21)C(=O)O) [Apelin polypeptide SEQ ID NO: 308] |
| 238 | 414 | Tridecanoyl-[γGlu][AEEA][AEEA]QRP[NMeR][αMeL]SHKG[Oic][Nle][αMeP][Phe(4-Cl)]-OH (SMILES CCCCCCCCCCCCC(=O)N[C@@H](CCC(=O)NCCOCCOCC(=O)NCCOCCOCC(=O)N[C@@H](CCC(N)=O)C(=O)N[C@@H](CCCNC(=N)N)C(=O)N1CCC[C@H]1C(=O)N(C)[C@@H](CCCNC(=N)N)C(=O)N[C@@](C)(CC(C)C)C(=O)N[C@@H](CO)C(=O)N[C@@H](Cc1c[nH]cn1)C(=O)N[C@@H](CCCCN)C(=O)NCC(=O)N1[C@H](C(=O)N[C@@H](CCCC)C(=O)N2CCC[C@@]2(C)C(=O)N[C@@H](Cc2ccc(Cl)cc2)C(=O)O)C[C@@H]2CCCC[C@@H]21)C(=O)O) [Apelin polypeptide SEQ ID NO: 376] |
| 5630 | 21800 | Tridecanoyl-[γGlu][AEEA][AEEA][dQ]RP[Nle][Cha]SHKG[Oic][Nle][Aib][Phe(4-Cl)]-OH (SMILES CCCCCCCCCCCCC(=O)N[C@@H](CCC(=O)NCCOCCOCC(=O)NCCOCCOCC(=O)N[C@H](CCC(N)=O)C(=O)N[C@@H](CCCNC(=N)N)C(=O)N1CCC[C@H]1C(=O)N[C@@H](CCCC)C(=O)N[C@@H](CC1CCCCC1)C(=O)N[C@@H](CO)C(=O)N[C@@H](Cc1c[nH]cn1)C(=O)N[C@@H](CCCCN)C(=O)NCC(=O)N1[C@H](C(=O)N[C@@H](CCCC)C(=O)NC(C)(C)C(=O)N[C@@H](Cc2ccc(Cl)cc2)C(=O)O)C[C@@H]2CCCC[C@@H]21)C(=O)O) [Apelin polypeptide SEQ ID NO: 528] |
| 83.2 | 298 | XXXQRPRLSHKGXXPF ({TDA}[AC4Abu][Aeea][Aeea]QRP[NMeArg][aMeLeu]SHKG[Pip][Nle][aMePro][4-Cl-F]{COOH}) [Apelin polypeptide SEQ ID NO: 605] |
| 867 | 2830 | Tridecanoyl-[γGlu][AEEA][AEEA][dQ]RP[NMeR][αMeL]SHKG[Oic][Nle][β3hP][Phe(4-Cl)]-OH (SMILES CCCCCCCCCCCCC(=O)N[C@@H](CCC(=O)NCCOCCOCC(=O)NCCOCCOCC(=O)N[C@H](CCC(N)=O)C(=O)N[C@@H](CCCNC(=N)N)C(=O)N1CCC[C@H]1C(=O)N(C)[C@@H](CCCNC(=N)N)C(=O)N[C@@](C)(CC(C)C)C(=O)N[C@@H](CO)C(=O)N[C@@H](Cc1c[nH]cn1)C(=O)N[C@@H](CCCCN)C(=O)NCC(=O)N1[C@H](C(=O)N[C@@H](CCCC)C(=O)N2CCC[C@H]2CC(=O)N[C@@H](Cc2ccc(Cl)cc2)C(=O)O)C[C@@H]2CCCC[C@@H]21)C(=O)O) [Apelin polypeptide SEQ ID NO: 554] |
| 102 | 422 | XXXQRPRLSHKGXXPF ({TDA}[AC4Abu][Aeea][Aeea]qRP[NMeArg][aMeLeu]SHKG[Pip][Nle][aMePro][4-Cl-F]{COOH}) [Apelin polypeptide SEQ ID NO: 555] |
| 196 | 365 | Tridecanoyl-[γGlu][AEEA][AEEA]QRP[NMeR][αMeL]SHKG[Oic][Nle][Phe(4-Cl)]-OH (SMILES CCCCCCCCCCCCC(=O)N[C@@H](CCC(=O)NCCOCCOCC(=O)NCCOCCOCC(=O)N[C@@H](CCC(N)=O)C(=O)N[C@@H](CCCNC(=N)N)C(=O)N1CCC[C@H]1C(=O)N(C)[C@@H](CCCNC(=N)N)C(=O)N[C@@](C)(CC(C)C)C(=O)N[C@@H](CO)C(=O)N[C@@H](Cc1c[nH]cn1)C(=O)N[C@@H](CCCCN)C(=O)NCC(=O)N1[C@H](C(=O)N[C@@H](CCCC)C(=O)N[C@@H](Cc2ccc(Cl)cc2)C(=O)O)C[C@@H]2CCCC[C@@H]21)C(=O)O) [Apelin polypeptide SEQ ID NO: 389] |
| 400 | 494 | Tridecanoyl-[γGlu][AEEA][AEEA]QRP[Nle]LSHKGP[Nle]P[Phe(4-Cl)]-OH (SMILES CCCCCCCCCCCCC(=O)N[C@@H](CCC(=O)NCCOCCOCC(=O)NCCOCCOCC(=O)N[C@@H](CCC(N)=O)C(=O)N[C@@H](CCCNC(=N)N)C(=O)N1CCC[C@H]1C(=O)N[C@@H](CCCC)C(=O)N[C@@H](CC(C)C)C(=O)N[C@@H](CO)C(=O)N[C@@H](Cc1c[nH]cn1)C(=O)N[C@@H](CCCCN)C(=O)NCC(=O)N1CCC[C@H]1C(=O)N[C@@H](CCCC)C(=O)N1CCC[C@H]1C(=O)N[C@@H](Cc1ccc(Cl)cc1)C(=O)O)C(=O)O) [Apelin polypeptide SEQ ID NO: 428] |
| 320 | 289 | Tridecanoyl-[γGlu][AEEA][AEEA]QRP[hArg]LSHKG[Oic][Nle]P[Phe(4-Cl)]-OH (SMILES CCCCCCCCCCCCC(=O)N[C@@H](CCC(=O)NCCOCCOCC(=O)NCCOCCOCC(=O)N[C@@H](CCC(N)=O)C(=O)N[C@@H](CCCNC(=N)N)C(=O)N1CCC[C@H]1C(=O)N[C@@H](CCCCNC(=N)N)C(=O)N[C@@H](CC(C)C)C(=O)N[C@@H](CO)C(=O)N[C@@H](Cc1c[nH]cn1)C(=O)N[C@@H](CCCCN)C(=O)NCC(=O)N1[C@H](C(=O)N[C@@H](CCCC)C(=O)N2CCC[C@H]2C(=O)N[C@@H](Cc2ccc(Cl)cc2)C(=O)O)C[C@@H]2CCCC[C@@H]21)C(=O)O) [Apelin polypeptide SEQ ID NO: 356] |
| 68.8 | 170 | Tridecanoyl-[γGlu][AEEA][AEEA]QRP[NMeR][αMeL]SHKG[Oic][Nle]P[Phe(4-Cl)]-OH (SMILES CCCCCCCCCCCCC(=O)N[C@@H](CCC(=O)NCCOCCOCC(=O)NCCOCCOCC(=O)N[C@@H](CCC(N)=O)C(=O)N[C@@H](CCCNC(=N)N)C(=O)N1CCC[C@H]1C(=O)N(C)[C@@H](CCCNC(=N)N)C(=O)N[C@@](C)(CC(C)C)C(=O)N[C@@H](CO)C(=O)N[C@@H](Cc1c[nH]cn1)C(=O)N[C@@H](CCCCN)C(=O)NCC(=O)N1[C@H](C(=O)N[C@@H](CCCC)C(=O)N2CCC[C@H]2C(=O)N[C@@H](Cc2ccc(Cl)cc2)C(=O)O)C[C@@H]2CCCC[C@@H]21)C(=O)O) [Apelin polypeptide SEQ ID NO: 385] |
| 93.4 | 261 | Tridecanoyl-[γGlu][AEEA][AEEA][dQ]RP[NMeR][αMeL]SHKG[Oic][Nle]P[Phe(4-Cl)]-OH (SMILES CCCCCCCCCCCCC(=O)N[C@@H](CCC(=O)NCCOCCOCC(=O)NCCOCCOCC(=O)N[C@H](CCC(N)=O)C(=O)N[C@@H](CCCNC(=N)N)C(=O)N1CCC[C@H]1C(=O)N(C)[C@@H](CCCNC(=N)N)C(=O)N[C@@](C)(CC(C)C)C(=O)N[C@@H](CO)C(=O)N[C@@H](Cc1c[nH]cn1)C(=O)N[C@@H](CCCCN)C(=O)NCC(=O)N1[C@H](C(=O)N[C@@H](CCCC)C(=O)N2CCC[C@H]2C(=O)N[C@@H](Cc2ccc(Cl)cc2)C(=O)O)C[C@@H]2CCCC[C@@H]21)C(=O)O) [Apelin polypeptide SEQ ID NO: 386] |
| 5260 | 24000 | Tridecanoyl-[γGlu][AEEA][AEEA][dQ]RP[Nle][Cha]SAKG[Oic][Nle][Aib][Phe(4-Cl)]-OH (SMILES CCCCCCCCCCCCC(=O)N[C@@H](CCC(=O)NCCOCCOCC(=O)NCCOCCOCC(=O)N[C@H](CCC(N)=O)C(=O)N[C@@H](CCCNC(=N)N)C(=O)N1CCC[C@H]1C(=O)N[C@@H](CCCC)C(=O)N[C@@H](CC1CCCCC1)C(=O)N[C@@H](CO)C(=O)N[C@@H](C)C(=O)N[C@@H](CCCCN)C(=O)NCC(=O)N1[C@H](C(=O)N[C@@H](CCCC)C(=O)NC(C)(C)C(=O)N[C@@H](Cc2ccc(Cl)cc2)C(=O)O)C[C@@H]2CCCC[C@@H]21)C(=O)O) [Apelin polypeptide SEQ ID NO: 529] |
| 20.4 | 92 | Tridecanoyl-[γGlu][AEEA][AEEA]QRP[NMeR][αMeL]SHKGP[Nle]P[2Nal]-OH (SMILES CCCCCCCCCCCCC(=O)N[C@@H](CCC(=O)NCCOCCOCC(=O)NCCOCCOCC(=O)N[C@@H](CCC(N)=O)C(=O)N[C@@H](CCCNC(=N)N)C(=O)N1CCC[C@H]1C(=O)N(C)[C@@H](CCCNC(=N)N)C(=O)N[C@@](C)(CC(C)C)C(=O)N[C@@H](CO)C(=O)N[C@@H](Cc1c[nH]cn1)C(=O)N[C@@H](CCCCN)C(=O)NCC(=O)N1CCC[C@H]1C(=O)N[C@@H](CCCC)C(=O)N1CCC[C@H]1C(=O)N[C@@H](Cc1ccc2ccccc2c1)C(=O)O)C(=O)O) [Apelin polypeptide SEQ ID NO: 472] |
